Target: 3xFlag20Q-htt (full-length humanized normal huntingtin, chimeric mouse/human exon 1 with a 20Q stretch and the human PRR, with a 3xFlag N-terminal epitope tag) (mouse | human)
Experiment: co-IP; 500 ug whole brain cytoplasmic extract (mice 13, 16 or 27 months old) with 5-6 ug FLAG M2 or 1C2 antibody overnight at 4°C, captured on Protein G-agarose beads for 3 hr; same extraction buffer; eluted by boiling in SDS sample buffer; bound and non-bound fractions blotted with 1C2 and MAB2166; control without antibody

percent of soluble full-length mutant htt associated with 3xFlag20Q-htt: < 2.5%
Substance: 140Q-htt (soluble full-length mutant huntingtin of the CAG140 knock-in allele, chimeric mouse/human exon 1 with a 140Q stretch and the human PRR) (natural protein)
